# In US20050251885A1, “Method for enhancing yield of recombinant protein production from plants” (UNIVERSITE LAVAL, priority 2002, published 2005):
# B1: α-1 antichymotrypsin: human serpin, inhibitor of chymotrypsin-like proteases (protein, UniProt P01011 24-423, looked up)
# Alpha-1-antichymotrypsin: HPNSPLDEENLTQENQDRGTHVDLGLASANVDFAFSLYKQLVLKAPDKNVIFSPLSISTALAFLSLGAHNTTLTEILKGLKFNLTETSEAEIHQSFQHLLRTLNQSSDELQLSMGNAMFVKEQLSLLDRFTEDAKRLYGSEAFATDFQDSAAAKKLINDYVKNGTRGKITDLIKDLDSQTMMVLVNYIFFKAKWEMPFDPQDTHQSRFYLSKKKWVMVPMMSLHHLTIPYFRDEELSCTVVELKYTGNASALFILPDQDKMEEVEAMLLPETLKRWRDSLEFREIGELYLPKFSISRDYNLNDILLQLGIEEAFTSKADLSGITGARNLAVSQVVHKAVLDVFEEGTEASAATAVKITLLSALVETRTIVRFNRPFLMIIVPTDTQNIFFMSKVTNPKQA
# Test system: alfalfa leaf proteases (fraction #8)
# Test: Fibronectin proteolysis by alfalfa leaf Mono-Q fraction #8 with protease inhibitors, immunodetection
# Format: biochemical, alfalfa (cultivar Saranac)
# Conditions: for proteolysis of fibronectin by the Mono-Q fraction in presence of inhibitor: 5 μl fraction #8, 350 ng fibronectin, 37° C., 15 min, FIG. 5B
# Protocol: Firstly, a protein extract from alfalfa leaves was separated by chromatography to isolate a specific fraction containing the greatest protease activity. Alfalfa (cultivar Saranac) leaves were extracted by grinding in liquid nitrogen and resolubilization in 50 mM Tris-HCl, pH 6,8, containing 10 mM β-mercaptoethanol. The crude extract was centrifuged for 15 min at 10000 g at 4° C., and the supernatant was filtered through a 0.3 μm pore size filter. Fifteen mg of leaf proteins were then loaded on of a Mono-Q FPLC column (Pharmacia) equilibrated with extraction buffer. Proteins were eluted with a linear gradient of KCl (0 to 0.7 M) in extraction buffer, at a flow rate of 2 ml/min. Fractions of 500 μl were collected, and sample of each fraction was loaded onto a gelatin/PAGE gel (FIG. 5A). Fraction #8, which caused the highest proteolysis of gelatin in gel, was use to assess the protective effect of α-1 antichyinotrypsin.
# Secondly, the identified fraction #8 was used in conjunction with various protease inhibitors to identify potential candidates for the inhibition of fibronectin proteolysis. In the experiment illustrated in FIG. 5B, 5 μl of fraction #8 was mixed with 350 ng of fibronectin and incubated at 37° C. for 15 min, in the presence of 2 μl H2O (lane 2), 2 μl of 10 mM chymostatin (lane 3) or 2 μl α-1 antichymotrypsin (lane 4). The control (lane 1) contained 5 μl extraction of buffer instead of alfalfa proteases. The reaction was stopped after 15 min. and fibronectin was immunodetected as in FIG. 1C. […] Note that both protein (α-1 antichymotrypsin) and chemical (chymostatin) molecules were efficient to decrease degradation of fibronectin.
Molecule,proteolysis of fibronectin by the Mono-Q fraction in presence of inhibitor,stability of fibronectin on inhibiting alfalfa proteases (FIG. 5)
"CC(C)C[C@H](NC(=O)[C@@H](NC(=O)N[C@@H](Cc1ccccc1)C(=O)O)[C@@H]1CCN=C(N)N1)C(=O)N[C@H](C=O)Cc1ccccc1 [chymostatin, reference compound]",prevented,
B1,prevented,significantly increased
